Tests used:
[1] = Fe retained in sedimented fraction of suspended salt (AES/ICP); format: physicochemical
Procedure: The prepared FePA as described in Example 3 was suspended either at pH 2 or at pH 5,5 in a concentration of 35.8 g per liter. After sedimentation, the supernatant fraction of both suspensions was analysed by AES/ICP.
Subsequently, the suspension of pH=2 was centrifuged 10 minutes at 6000 rpm at room temperature. The pellet was dissolved in 15 g concentrated […] and the solution was analyzed by AES/ICP.
This procedure was repeated with iron phosphate. This salt was prepared in the same way as the preparation of the essential cation phytates: the cation was dissolved as its sulfate, and subsequently precipitated with a basic solution of sodium phosphate. The precipitate was collected and washed.

[2] = Mineral partitioning in ground Cruesli with added FePA and/or phytase (AES-ICP); format: biochemical; conditions: phytase 115 FTU/g
Procedure: 0.1 g of this preparation was added to 20 g ground Cruesli™ (Quaker Foods & Beverages). […] […] The suspension was incubated at 37° C. with constant stirring for 4 h, and subsequently centrifuged for 20 minutes at 16000 rpm and 4° C. After centrifugation, the sediment and the supernatant fraction were separated, weighed and analyzed by AES-ICP to determine their phosphorus, calcium, magnesium, zinc and iron content. Control suspensions without phytase activity (but with the FePA), and without both FePA and phytase underwent the same procedure.

[3] = characteristic stomach pH-values; cited from earlier work
[4] = Phytase activity on different substrates (method of Engelen et al.); format: biochemical; conditions: 37° C.; for Activity: incubation 60 minutes
Procedure: The activity of Aspergillus niger phytase (NATUPHOS™) was tested against NaPA and CaPA. The influence of the metal in the phytate source on the phytase activity (37° C. using an incubation time of 60 minutes) was investigated. The rate of phytate hydrolysis was determined using the analytical method described by Engelen et al., J. AOAC Int. 77:760-764 (1994).

[5] = Mineral partitioning in ground Cruesli fractions with added phytase activity (AES-ICP); format: biochemical
Procedure: Various phytase preparations are commercially available. We have used the liquid formulation NATUPHOS™ 5000 L (DSM, Delft, The Netherlands). Again we used ground Cruesli™ (Quaker Foods & Beverages) as model phytate-containing foodstuff. About 20 grams ground Cruesli™ was suspended in two separate lots of 40 g acetate buffer (0.25 M, pH 5.5, 37° C.). To one of the lots, 1.2 g of the phytase preparation was added, to achieve a final activity of 100 FTU/g. The suspensions were incubated at 37° C. with constant stirring for 1,5 h, and subsequently centrifuged for 20 minutes at 16000 rpm and 4° C. After centrifugation the sediment and the supernatant fraction were separated, weighed and analyzed by AES-ICP to determine their phosphorus, calcium, magnesium and zinc content.
The procedure for this example was the same as for Example 6, but a lower final phytase activity in the incubation was used: 1 FTU/g, instead of 100. The incubation time was lowered to 1 hour.
The procedure for this example was the same as for Example 7, but at a lower pH value and a longer incubation time. This was done to simulate the conditions existant in the stomach. We looked specifically at iron, because iron salts are believed to be particularly poorly soluble at higher pH values, making breakdown in the stomach an attractive option. Iron concentrations were determined by AES-ICP.

[6] = incubation pH 2, 37° C., 4 h, where added: Fe-phytate 450 mg/kg
[7] = incubation pH <1, where added: Fe-phytate 450 mg/kg
[8] = pH 2, 37° C., 2 h, phytase 1 FTU/g
[9] = pH 5.5, 37° C., 1 h, phytase 1 FTU/g
[10] = pH 5.5, 37° C., 1.5 h, phytase 100 FTU/g
[11] = incubation pH 5.5, where added: Fe-phytate 450 mg/kg

With iron phosphate [reference compound] the “Fe retained in the sedimented fraction” value ([1]; suspended at pH 2) was “less than 10%” and the “Fe retained in the sedimented fraction” value ([1]; suspended at pH 5.5) was “more than 90%”.

In the case of Iron-phytate [Fe-phytate], the “Fe retained in the sedimented fraction” value ([1]; suspended at pH 2) is reported as “more than 90%”, the “Fe retained in the sedimented fraction” value ([1]; suspended at pH 5.5) is reported as “more than 90%” and the “Percentage of mineral in supernatant fraction, Iron” value [2, 6] is reported as 10%. For the same molecule, the “Percentage of mineral in supernatant fraction, Phosphorus” value [2, 6] was 9.6%, the “Percentage of mineral in supernatant fraction, Iron” value [2, 7] was 23% and the “Percentage of mineral in supernatant fraction, Phosphorus” value [2, 7] was 68%.

B1: phytase: Phytase from A. niger commercialized under the trade name NATUPHOS; liquid (5000 L) and granulated (5000 G) formulations, 5000 FTU/g (protein, UniProt P34752 24-467, looked up)
Phytase A: ASRNQSSCDTVDQGYQCFSETSHLWGQYAPFFSLANESVISPEVPAGCRVTFAQVLSRHGARYPTDSKGKKYSALIEEIQQNATTFDGKYAFLKTYNYSLGADDLTPFGEQELVNSGIKFYQRYESLTRNIVPFIRSSGSSRVIASGKKFIEGFQSTKLKDPRAQPGQSSPKIDVVISEASSSNNTLDPGTCTVFEDSELADTVEANFTATFVPSIRQRLENDLSGVTLTDTEVTYLMDMCSFDTISTSTVDTKLSPFCDLFTHDEWINYDYLQSLKKYYGHGAGNPLGPTQGVGYANELIARLTHSPVHDDTSSNHTLDSSPATFPLNSTLYADFSHDNGIISILFALGLYNGTKPLSTTTVENITQTDGFSSAWTVPFASRLYVEMMQCQAEQEPLVRVLVNDRVVPLHGCPVDALGRCTRDSFVRGLSFARSGGDWAECFA
For B1, the “residual activity, % of optimal activity” value [3] is given as “about 50%”, the “activity of phytase on sodium and on calcium phytate compared” value ([4]; 60 minutes) is given as “equivalent” and the Activity ([4]; substrate 4.6 mM calcium phytate) is given as 3.12 * 10^5 FTU/g. The Activity ([4]; substrate 5.1 mM calcium phytate) was 3.07 * 10^5 FTU/g, the Activity ([4]; substrate 5.1 mM sodium phytate) was 3.06 * 10^5 FTU/g and the Activity ([4]; substrate 5.6 mM calcium phytate) was 3.10 * 10^5 FTU/g. The “% of mineral in supernatant fraction, Iron” value [5, 8] was 14%, the “% of mineral in supernatant fraction, Phosphorus” value [5, 8] was 33% and the “% of mineral in supernatant fraction, Calcium” value [5, 9] was 30%. The “% of mineral in supernatant fraction, Magnesium” value [5, 9] was 36%, the “% of mineral in supernatant fraction, Phosphorus” value [5, 9] was 30% and the “% of mineral in supernatant fraction, Zinc” value [5, 9] was 22%. The “% of mineral in supernatant fraction, Calcium” value [5, 10] was 40%, the “% of mineral in supernatant fraction, Magnesium” value [5, 10] was 49% and the “% of mineral in supernatant fraction, Phosphorus” value [5, 10] was 42%. For the same molecule, the “% of mineral in supernatant fraction, Zinc” value [5, 10] was 19%, the “Percentage of mineral in supernatant fraction, Iron” value [2, 11] was 6% and the “Percentage of mineral in supernatant fraction, Phosphorus” value [2, 11] was 45%.
